Reference: patent US11541126B1, “Anti-ASGR1 antibody TLR8 agonist comprising conjugates and uses thereof” (Silverback Therapeutics, Inc., priority 2020, dated 2023)
Where a chain is given by its changes, count along the chain named. In names and notes the source's numbering stands.

T1: HepG2 cells (which express ASGR1) (Homo sapiens, UniProt P07306)
T1 construct: endogenous in cells; host or cells: HepG2
T1 sequence (P07306 1-291): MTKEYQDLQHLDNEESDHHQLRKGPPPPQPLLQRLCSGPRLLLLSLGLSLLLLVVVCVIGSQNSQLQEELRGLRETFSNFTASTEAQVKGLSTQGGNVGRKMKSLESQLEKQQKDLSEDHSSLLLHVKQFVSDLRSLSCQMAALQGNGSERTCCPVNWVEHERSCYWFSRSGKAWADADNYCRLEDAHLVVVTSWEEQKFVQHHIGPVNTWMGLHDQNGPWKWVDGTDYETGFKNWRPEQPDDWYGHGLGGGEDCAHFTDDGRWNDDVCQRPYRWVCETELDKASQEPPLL

B1: hzG2D-29: humanized G2D clone; "G2D VL region ... of clones 1-16, 19-21, 26-29, 31, and 33 ... grafted into the human germline sequence VKI-L1 with JK4" (antibody, V domains shown)
VH: QVQLVQSGAEVKKPGASVKVSCKASGYTFTGYYMHWVKQAPGQRLEWMGRINPNNGATNYNQNFKDKASLTVDTSASTAYMELSSLRSEDTAVYYCTSVNFYYWGQGTTVTVSS
VL: DIQMTQSPSSLSASVGDRVTITCKASQVINSYLSWFQQKPGKAPKSLIYRANTLVDGVPSRFSGSGSGTDFTLTISSLQPEDFATYYCLQYAEFPYTFGGGTKVEIK
modifications: Synthetic sequence hzG2.49D VH R38K, R66K, V67A, T68S, I69L, R71V, A93T, R94S; Synthetic sequence hzG2D VLa
B2: hzG2D-32: humanized G2D clone; "G2D VL region ... of clones 22, 23, 30, 32, and 34-37 ... grafted into the human germline sequence VKI-O2 with JK4" (antibody, V domains shown)
VH: B1 VH with K38R, L83F, S84H
VL: B1 VL with F36Y, S46L
modifications: Synthetic sequence hzG2.50D VH R66K, V67A, T68S, I69L, R71V, L82F, S82aH, A93T, R94S; Synthetic sequence hzG2D VLb
B3: hzG2D-30: humanized G2D clone; "G2D VL region ... of clones 22, 23, 30, 32, and 34-37 ... grafted into the human germline sequence VKI-O2 with JK4" (antibody, V domains shown)
VH: B1 VH
VL: B1 VL with F36Y, S46L
modifications: Synthetic sequence hzG2.49D VH R38K, R66K, V67A, T68S, I69L, R71V, A93T, R94S; Synthetic sequence hzG2D VLb
B4: hzG2D-31: humanized G2D clone; "G2D VL region ... of clones 1-16, 19-21, 26-29, 31, and 33 ... grafted into the human germline sequence VKI-L1 with JK4" (antibody, V domains shown)
VH: B1 VH with K38R, L83F, S84H
VL: B1 VL
modifications: Synthetic sequence hzG2.50D VH R66K, V67A, T68S, I69L, R71V, L82F, S82aH, A93T, R94S; Synthetic sequence hzG2D VLa
B5: hzG2D-1: humanized G2D clone; "G2D VL region ... of clones 1-16, 19-21, 26-29, 31, and 33 ... grafted into the human germline sequence VKI-L1 with JK4" (antibody, V domains shown)
VH: B1 VH with K38R, K67R, A68V, S69T, L70I, V72R, T97A, S98R, V110L
VL: B1 VL
modifications: Synthetic sequence hzG2D VH V109L; Synthetic sequence hzG2D VLa

Target: T1, HepG2 cells (which express ASGR1)
Experiment: Guava HepG2 cell binding screen of humanized anti-ASGR1 clones
Design: unit not given here
Details: humanized G2D clones (Table 5); two numbers per cell, not explained
Procedure: Hybridomas producing monoclonal antibodies (mAbs) specific for human ASGR1 were prepared from Balb/C mice immunized with ASGR1-AviHis at a service provider using their propriety protocol. Antibody heavy and light chain sequences were obtained, amplified, and cloned. Clone supernatants containing the expressed mAbs were screened for binding to a human ASGR1-IgG1Fc fusion protein, and those with a positive signal as measured by enzyme linked immunosorbent assay (ELISA) were screened for cell binding on HepG2 cells (which express ASGR1).

Row | Molecule | Guava HepG2 Screen
1 | B1 | 189/108
2 | B2 | 167/103
3 | B3 | 198/115
4 | B4 | 168/95
5 | B5 | 32/19
